Data taken from article PMC9040844, “Escherichia coli Uses a Dedicated Importer and Desulfidase To Ferment Cysteine” (mBio, 2022).

Substrate: N[C@@H](CS)C(=O)O
Assay: purified protein
Format: biochemical, Escherichia coli
Conditions: 50 mM Tris pH 7.6, room temperature, anaerobic, Fe(II)/DTT-reactivated [4Fe-4S] enzyme

B1: CyuA (Escherichia coli K-12) (protein)
chain: MFDSTLNPLWQRYILAVQEEVKPALGCTEPISLALAAAVAAAELEGPVERVEAWVSPNLMKNGLGVTVPGTGMVGLPIAAALGALGGNANAGLEVLKDATAQAIADAKALLAAGKVSVKIQEPCDEILFSRAKVWNGEKWACVTIVGGHTNIVHIETHDGVVFTQQACVAEGEQESPLTVLSRTTLAEILKFVNEVPFAAIRFILDSAKLNCALSQEGLSGKWGLHIGATLEKQCERGLLAKDLSSSIVIRTSAASDARMGGATLPAMSNSGSGNQGITATMPVVVVAEHFGADDERLARALMLSHLSAIYIHNQLPRLSALCAATTAAMGAAAGMAWLVDGRYETISMAISSMIGDVSGMICDGASNSCAMKVSTSASAAWKAVLMALDDTAVTGNEGIVAHDVEQSIANLCALASHSMQQTDRQIIEIMASKAR
notes: full ORF in pET16b, N-terminal His10 tag kept, about 47 kDa; expressed in E. coli SR011 (BL21(DE3) katG katE) with isc operon
With B1 the Km was 200 µM.
